{"source": "patent US20260209348A1", "about": "(University of California, published 2026)", "binders": {"B1": {"name": "grafted humanized 6E6: VH3-21*01 (extended) + VK1-12*01 (IMGT) (antibody, V domains shown)", "VH": "EVQLVESGGGLVKPGGSLRLSCAASGFTFSNYGMSWVRQAPGKGLEWVSTISSGGGYTHYVDSVKGRFTISRDNAKNSLYLQMNSLRAEDTAVYYCARHPRDFSYAMDYWGQGTTVTVSS", "VL": "DIQMTQSPSSVSASVGDRVTITCRASQDVGHYLAWYQQKPGKAPKLLIYWASSLQSGVPSRFSGSGSGTDFTLTISSLQPEDFATYYCQQYNIYPWTFGQGTKVEIK", "notes": "expressed as IgG"}, "B2": {"name": "grafted humanized 6E6: VH3-11*03 (IMGT) + VK1-12*01 (IMGT) (antibody, V domains shown)", "VH": "B1 VH with E1Q, V5L, V37I, T50Y, H59N, V61A", "VL": "B1 VL", "notes": "expressed as IgG"}, "B3": {"name": "grafted humanized 6E6: VH3-11*03 (IMGT) + VK1-12*01 (extended) (antibody, V domains shown)", "VH": "B1 VH with E1Q, V5L, V37I, T50Y, H59N, V61A", "VL": "B1 VL with R24K, L33V, S53T, L54R, Q55H, S56T", "notes": "expressed as IgG"}, "B4": {"name": "grafted humanized 6E6: VH3-11*03 (extended) + VK1-8*01 (IMGT) (antibody, V domains shown)", "VH": "B1 VH with E1Q, V5L, V37I", "VL": "B1 VL with D1A, Q3R, V11F, V15T, S53T, S77C, P80S", "notes": "expressed as IgG"}, "B5": {"name": "grafted humanized 6E6: VH3-11*03 (extended) + VK1-12*01 (IMGT) (antibody, V domains shown)", "VH": "B1 VH with E1Q, V5L, V37I", "VL": "B1 VL", "notes": "expressed as IgG"}, "B6": {"name": "grafted humanized 6E6: VH3-11*03 (extended) + VK1-12*01 (extended) (antibody, V domains shown)", "VH": "B1 VH with E1Q, V5L, V37I", "VL": "B1 VL with R24K, L33V, S53T, L54R, Q55H, S56T", "notes": "expressed as IgG"}, "B7": {"name": "grafted humanized 6E6: VH3-21*01 (IMGT) + VK1-8*01 (IMGT) (antibody, V domains shown)", "VH": "B1 VH with S35N, T50S, H59Y, V61A", "VL": "B1 VL with D1A, Q3R, V11F, V15T, S53T, S77C, P80S", "notes": "expressed as IgG"}, "B8": {"name": "h6E6-045 (antibody, V domains shown)", "VH": "B1 VH with N31G, D62Q", "VL": "EIVMTQSPATLSVSPGERATLSCKASQDVGHYVAWYQQKPGQAPRLLIYWASTRATGIPARFSGSGSGTEFTLTISSLQSEDFAVYYCQQYNIYPWTFGQGTKVEIK", "notes": "also called clone 45"}, "B9": {"name": "h6E6-046 (antibody, V domains shown)", "VH": "B1 VH with N31R, M34I, V61A, D62T", "VL": "B8 VL with A55H", "notes": "also called clone 46"}, "B10": {"name": "h6E6-047 (antibody, V domains shown)", "VH": "B1 VH with N31K, L45P, V61A, D62T, M107L", "VL": "B8 VL with K24R", "notes": "also called clone 47"}, "B11": {"name": "h6E6-049 (antibody, V domains shown)", "VH": "B1 VH with T50S, V61A, D62E", "VL": "B8 VL", "notes": "also called clone 49"}, "B12": {"name": "h6E6-050 (antibody, V domains shown)", "VH": "B1 VH with N31R, M107H", "VL": "B8 VL with V33L", "notes": "also called clone 50"}, "B13": {"name": "h6E6-051 (antibody, V domains shown)", "VH": "B1 VH with M107L", "VL": "B8 VL", "notes": "also called clone 51"}, "B14": {"name": "h6E6-052 (antibody, V domains shown)", "VH": "B1 VH with N31H, M34T, V61A, D62E, M107I", "VL": "B8 VL with V33L", "notes": "also called clone 52"}, "B15": {"name": "h6E6-054 (antibody, V domains shown)", "VH": "B1 VH with M34V, D62T, M107L", "VL": "B8 VL", "notes": "also called clone 54"}, "B16": {"name": "h6E6-062 (antibody, V domains shown)", "VH": "B1 VH with N31S, M34H, H59Y, V61A, D62E, M107H", "VL": "B8 VL with V33L", "notes": "also called clone 62"}, "B17": {"name": "h6E6-064 (antibody, V domains shown)", "VH": "B1 VH with N31H, M34I, T50S, V61A, D62E", "VL": "B8 VL with K24R", "notes": "also called clone 64"}, "B18": {"name": "h6E6-069 (antibody, V domains shown)", "VH": "B1 VH with N31K, M34V, D62E", "VL": "B8 VL with V33L", "notes": "also called clone 69"}, "B19": {"name": "h6E6-071 (antibody, V domains shown)", "VH": "B1 VH with N31H, V61A, D62E, M107F", "VL": "B8 VL with V33L, A55H", "notes": "also called clone 71"}, "B20": {"name": "h6E6-076 (antibody, V domains shown)", "VH": "B1 VH with N31G, D62E, M107L", "VL": "B8 VL with V33L", "notes": "also called clone 76"}, "B21": {"name": "h6E6-078 (antibody, V domains shown)", "VH": "B1 VH with N31A, M34S, V61A, D62P", "VL": "B8 VL", "notes": "also called clone 78"}, "B22": {"name": "h6E6-081 (antibody, V domains shown)", "VH": "B1 VH with N31S, S35N, V61A, M107Q", "VL": "B8 VL with K24R, A55H", "notes": "also called clone 81"}, "B23": {"name": "h6E6-082 (antibody, V domains shown)", "VH": "B1 VH with N31K, V61A", "VL": "B8 VL with V33L, A55H", "notes": "also called clone 82"}, "B24": {"name": "h6E6-084 (antibody, V domains shown)", "VH": "B1 VH with N31Q, D62Q, M107Q", "VL": "B8 VL with V33L", "notes": "also called clone 84"}, "B25": {"name": "h6E6-089 (antibody, V domains shown)", "VH": "B1 VH with N31D, M34I, D62Q", "VL": "B8 VL with V33L", "notes": "also called clone 89"}, "B26": {"name": "h6E6-090 (antibody, V domains shown)", "VH": "B1 VH with N31T, M34T, V61A, D62P, M107L", "VL": "B8 VL with V33L, A55H", "notes": "also called clone 90"}, "B27": {"name": "h6E6-097 (antibody, V domains shown)", "VH": "B1 VH with N31A, D62E", "VL": "B8 VL", "notes": "also called clone 97"}, "B28": {"name": "h6E6-099 (antibody, V domains shown)", "VH": "B1 VH with S35N, V61A, D62P", "VL": "B8 VL", "notes": "also called clone 99"}, "B29": {"name": "h6E6-106 (antibody, V domains shown)", "VH": "B1 VH with N31S, M34I, H59Y, M107L", "VL": "B8 VL", "notes": "also called clone 106"}, "B30": {"name": "h6E6-109 (antibody, V domains shown)", "VH": "B1 VH with M34T, D62T", "VL": "B8 VL", "notes": "also called clone 109"}, "B31": {"name": "h6E6-110 (antibody, V domains shown)", "VH": "B1 VH with N31H, M34V, V61A, D62E, M107Q", "VL": "B8 VL with K24R, V33L", "notes": "also called clone 110"}, "B32": {"name": "h6E6-115 (antibody, V domains shown)", "VH": "B1 VH with N31G, D62T, M107L", "VL": "B8 VL with K24R, V33L", "notes": "also called clone 115"}, "B33": {"name": "h6E6-117 (antibody, V domains shown)", "VH": "B1 VH with N31V, M34I, V61A, D62P", "VL": "B8 VL", "notes": "also called clone 117"}}, "note": "Where a chain is given by its changes, count along the chain named.", "data": [{"target": "T1, human ROR2 (human, UniProt Q01974 34-403, limits assumed)", "T1 sequence (Q01974 34-403 limits assumed)": "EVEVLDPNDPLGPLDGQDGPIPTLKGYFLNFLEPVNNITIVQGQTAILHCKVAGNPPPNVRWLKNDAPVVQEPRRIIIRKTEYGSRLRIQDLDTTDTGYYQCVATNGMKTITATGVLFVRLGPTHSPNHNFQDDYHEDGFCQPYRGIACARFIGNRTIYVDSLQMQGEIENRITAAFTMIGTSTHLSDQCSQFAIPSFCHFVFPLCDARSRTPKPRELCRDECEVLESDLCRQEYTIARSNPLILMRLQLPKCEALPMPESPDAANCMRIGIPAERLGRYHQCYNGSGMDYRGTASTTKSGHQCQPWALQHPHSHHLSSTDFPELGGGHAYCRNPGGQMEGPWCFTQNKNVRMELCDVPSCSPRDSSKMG", "assay": "SPR", "units": {"Kd": "pM"}, "values": [{"binder": "B1", "Kd": 520}, {"binder": "B2", "Kd": 178000}, {"binder": "B3", "Kd": 162000}, {"binder": "B4", "Kd": 1100}, {"binder": "B5", "binding result": "no binding"}, {"binder": "B6", "Kd": 2100}, {"binder": "B7", "binding result": "no binding"}]}, {"target": "T1, human ROR2", "assay": "SPR", "remark": "another data set of the same source", "method_in_brief": "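Values are dissociation constants (Kd, nM) for binding to human ROR2, measured by surface plasmon resonance. The monoclonal antibodies tested were humanized anti-human ROR2 antibodies built from murine complementarity-determining regions placed into human acceptor frameworks, with a human IgG1 constant region. Antigen format, concentrations, temperature, buffer and replicates are not given.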", "units": {"Kd": "pM"}, "values": [{"binder": "B8", "Kd": 134}, {"binder": "B9", "Kd": 527}, {"binder": "B10", "Kd": 86}, {"binder": "B11", "Kd": 1400}, {"binder": "B12", "Kd": 482}, {"binder": "B13", "Kd": 160}, {"binder": "B14", "Kd": 533}, {"binder": "B15", "Kd": 178}, {"binder": "B16", "Kd": 839}, {"binder": "B17", "Kd": 5800}, {"binder": "B18", "Kd": 407}, {"binder": "B19", "Kd": 582}, {"binder": "B20", "Kd": 203}, {"binder": "B21", "Kd": 476}, {"binder": "B22", "Kd": 62}, {"binder": "B23", "Kd": 812}, {"binder": "B24", "Kd": 108}, {"binder": "B25", "Kd": 2200}, {"binder": "B26", "Kd": 178}, {"binder": "B27", "Kd": 96}, {"binder": "B28", "Kd": 286}, {"binder": "B29", "Kd": 642}, {"binder": "B30", "Kd": 151}, {"binder": "B31", "Kd": 73}, {"binder": "B32", "Kd": 187}, {"binder": "B33", "Kd": 323}]}]}
